Source: patent US9284369B2, “Inhibition of angiogenesis” (Genentech, Inc., priority 2007, dated 2016)

B1: Bv8: recombinant Bv8 (Prokineticin-2) protein, PeproTech (protein)
chain: AVITGACDKDSQCGGGMCCAVSIWVKSIRICTPMGKLGDSCHPLTRKVPFFGRRMHHTCPCLPGLACLRTSFNRFICLAQK

What was measured:
[1] = tested on: Bv8 protein levels; test: Serum Bv8 in A673 tumor-bearing mice treated with cisplatin; type: in vivo, mouse; conditions: cisplatin 5 mg/kg, alone or in combination with anti-VEGF
Description: FIG. 6. […] Anti-Bv8 treatment is mostly effective when treatment is initiated early in tumor development. […] Mice were then treated with control, anti-Bv8, anti-VEGF or combination (anti-VEGF plus anti-Bv8) of antibodies. Tumor volume was measured as described. * indicates significant difference (p<0.05) in tumor volume between combination therapy vs. anti-VEGF monotherapy. c&d. […] Nude mice (c) and C57B1/6 (d) mice were implanted with EL4 cells and underwent treatment with control, anti-Bv8, anti-VEGF or the combination. Tumor volume and terminal tumor weight were measured as described. * indicates significant difference […] in tumor volume in control vs. each monotherapy or the combination therapy. Differences in tumor volume are also significant when comparing combination vs. each monotherapy. e. Cisplatin and anti-VEGF treatment increase Bv8 concentration in the serum. Beige nude mice were implanted with A673 cells and were treated with PBS, cisplatin (5 mg/kg) plus control antibody, cisplatin plus anti-Bv8, or cisplatin plus anti-VEGF or the combination cisplatin, anti-Bv8 and anti-VEGF. Serum Bv8 protein concentrations were measured by ELISA. f. Chemotherapy plus anti-VEGF and anti-Bv8 can effectively suppress tumor growth in established A673 tumors. […]

[2] = tested on: Lin- and CD11b+Gr1+ BM cells; test: Bv8 treatment of Lin- and CD11b+Gr1+ BM cells; type: cell-based, mouse
Description: Supplemental FIG. 3. a. Bv8 induces trans-well migration of CD11b+Gr1+ myeloid cells. Controls were PBS or media alone. b&c. Expression of Bv8 receptors in BMMNCs. Beige nude mice were implanted with A673, HM7, HPAC or Calu-06 cells as described. After 10 days, CD11b+Gr1+ myeloid cells were isolated from the BM and Taqman™ analysis was performed to investigate EG-VEGFRs expression in myeloid and non-myeloid (CD11b−Gr1−) subsets of tumor versus Matrigel™-implanted mice. […] Bv8 alters the fate of the progenitor population to myeloid cells (CD11b+Gr1+) and also inhibitors cell death in the Lin-population. The Lin-fraction, isolated from the BMMNCs of beige nude mice, was incubated with Bv8 for 5 days and the frequency of CD11b+Gr1+ cells was evaluated in a FACSCalibur machine. In addition, 7AAD staining was employed to measure the number of dead cells in each treatment. e. Bv8 induces clonogenic capacity of progenitor cells. Lin-population were treated with Bv8 or PBS for 5 days and were plated on methylcellulose (7500 cells per well) and were incubated in 5% CO2 and 37° C. for 15 days. […] L Bv8 is a survival factor for myloid populations. The CD11b+Gr1+ cells, isolated from the BMMNCs of beige/nude mice, were cultured in media and were treated with Bv8 (300 ng/ml) for 5 days. Cell death was measured in a FACSCalibur machine using 7AAD staining. g&h. […] Mice were implanted with A673 (e) or HM7 (f) tumors and were treated with anti-Bv8 or control antibodies as described. Treatment was stopped at day 7 after implantation, as indicated by arrow in the figure. i&j. Discontinued treatment of anti-Bv8 results in rebound of CD11b+Gr1+ cells to A673 (i) and HM7 (j) tumors.
However, the precise contribution of R1 vs. R2 in mediating Bv8 signaling in BMMNCs remains to be determined. […] To further characterize the effects of Bv8 on the cells of the hematopoietic system, both lineage depleted (Lin— that is devoid of CD11b+Gr1+ cells) and CD11b+Gr1+ cells were isolated from the BM of naïve mice and were treated with recombinant Bv8.

[3] = target: T1, PKR1/EG-VEGFR1 (Homo sapiens, UniProt Q8TCW9); test: Bv8 bioactivity assay, GeneBLAzer NFAT-CHO cells transfected with PKR1/EG-VEGFR1; type: cell-based; conditions: Bv8 0.2-200 ng/ml; VEGF-A up to 200 ng/ml
T1 construct: host or cells: GeneBLAzer NFAT-CHO cells
T1 sequence (Q8TCW9 whole entry): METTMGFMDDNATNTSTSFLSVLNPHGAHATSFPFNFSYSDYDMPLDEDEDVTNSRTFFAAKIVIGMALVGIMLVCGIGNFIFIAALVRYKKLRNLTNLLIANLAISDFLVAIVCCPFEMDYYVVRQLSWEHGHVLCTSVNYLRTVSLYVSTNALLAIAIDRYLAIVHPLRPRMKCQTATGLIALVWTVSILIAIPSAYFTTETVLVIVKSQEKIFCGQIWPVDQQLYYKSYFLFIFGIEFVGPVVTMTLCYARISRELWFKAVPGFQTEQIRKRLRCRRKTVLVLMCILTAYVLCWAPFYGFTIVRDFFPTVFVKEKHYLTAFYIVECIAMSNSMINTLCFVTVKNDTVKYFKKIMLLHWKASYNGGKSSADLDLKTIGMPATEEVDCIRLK
Description: The GeneBLAzer® NFAT-CHO cells were obtained from Invitrogen Corporation (Carlsbad, Calif.). Cells were stably transfected with PKR1/EG-VEGFR1 and grown in DMEM (high glucose) containing 10% dialysed serum, 0.1 mM NEAA, 2 mM GlutaMax™ (Gibco), 1 mM sodium pyruvate, 10 μg/ml Zeocin, 500 μg/ml hygromycin. Cells were plated into 96-well Viewplate (Packard) with 2.5×10^4 in […] in 1% DMEM overnight at 5% CO2, 37° C. On the following day, cells were treated with various column fractions that were concentrated with Microcon Centrifugal Filter Devices (Ultracel YM-3) from Millipore. 0.2-0.02 ng/ml hBv8 (Peprotech Inc.) prepared in 1% DMEM was used as a positive control. One hour later, media was removed and replaced with […] Hank's solution containing 0.1% BSA and 6× loading buffer containing 1 mM CCF4 (Invitrogen Corporation). Plates were incubated for 1.5 hr at room temperature in the dark and read on Wallac plate reader at excitation wavelength of 410 nm and emission wavelength of 450/520 nm. Negative controls were cells with no ligand added and control media alone. CHO cells were stimulated with recombinant human Bv8 or pooled fractions for 1 hr before adding the β-lactamase substrate CCF4. To assess the specificity of the column fractions, anti-Bv8 antibodies 2B9 and 3F1 were added at […].

[4] = tested on: human neutrophils; test: Chemotaxis of peripheral blood neutrophils; type: cell-based
Description: 10^6 cells were washed with HBSS containing 0.2% BSA before putting into transwell insert with 5 μm pore size (Corning Incorporated, Lowell, Mass.). In the lower chamber, media alone or media with various cytokines at various concentrations (maximum at 200 ng/ml) was added. After 3 hr at 37° C., cells in the lower chamber were transferred, mixed with 9 ml ZPAK solution and counted on Z2 Coulter Particle Count and Size Analyzer (Beckman Coulter, Fullerton, Calif.).

[5] = tested on: p44/42 MAPK; test: MAPK phosphorylation in TAECs (Western blot); type: cell-based, mouse
Description: TIB42-TAEC cells were starved for 6 hr in basal media supplemented with 0.5% BSA. Cells were then stimulated with human recombinant Bv8 (200 ng/ml; PeproTech), Complete Media (CM), VEGF (100 ng/ml; PeproTech) or BSA (0.5%). Cell extracts were collected at the indicated time-points. Western blot analysis of the extracts from TIB42-TAEC cells was performed using PhosphoPlus p44/42 MAPK™ antibody kit (Cell signaling).

[6] = tested on: CD11b+Gr1+ myeloid cells; test: Trans-well migration of BM CD11b+Gr1+ cells; type: cell-based, mouse; conditions: comparable to SDF-1
Description: BMMNCs were isolated from naïve Beige nude mice and the CD11b+Gr1+ population was sorted using CD11b microbeads (Miltenyi Biotech, CA) according to protocols provided by the manufacturer. An aliquot of the sorted cells were stained with anti-CD11bAPC and antiGr1-PE to ensure the purity (100%) of CD11b+Gr1+ cells. For migration assay, 2.0×10^5 cells were plated on the top chamber of transwells (Corning Incorporated, NY). The bottom chambers contained 600 μL of media (IMDM (Gibco BRL, CA) supplemented with BIT (Stem Cell Technologies, BC, Canada) containing human Bv8, control antibody, and murine recombinant VEGF in separate wells. Cells were incubated at 37° C. and 5% CO2 for 9 hrs and migration of CD11+b+Gr1+ cells was evaluated by counting the cells in the bottom chamber.

[7] = tested on: TIB42-TAEC cells; test: In vitro tube formation of tumor-associated endothelial cells; type: cell-based, mouse; conditions: Bv8 200 ng/ml, VEGF-A 100 ng/ml, 36 hours
Description: Tumor associated endothelial cells (TAECs) were isolated using a magnetic beads sorting system (Miltenyi Biotech), essentially as previously described (Hida et al., Cancer Res 64:8249-8255 (2004)). Briefly, TIB42 mouse lymphoma cells were injected into the dorsal lateral flanks of female beige nude mice. When tumors reached a diameter of […], they were excised, minced and then digested with collagenase II (Worthington Biochemical Corporation). Cell suspensions were than filtered using 100 μm to 40 μm meshes. CD31^+ cells were finally sorted using a FITC-CD31 antibody (BD Biosciences) according to the manufacturer's instructions. CD31+ cells were seeded in gelatin coated plates in the presence of EGM-2MV media (Cambrex). After 24 hs in culture CD31+ non-adherent cells were removed by washing several times with PBS.
For in vitro tube formation, TIB42-TAEC cells (passages 6-8) were starved for 5 hs in serum free medium. After this, cells were collected and resuspended in serum free medium supplemented with 5% BSA and treated with VEGF-A (100 ng/ml), Bv8 (200 ng/ml) or no addition (control). For specificity tests, Bv8, was incubated in the presence of anti-Bv8 Mabs (10 μg/ml). 5×10^5 cells were seeded in each well of a 24 well pre-coated with Matrigel™ (BD Biosciences) and tube formation was evaluated after 36 hours.

[8] = tested on: A673, HM7, HPAC and Calu6 cells; test: Tumor cell proliferation assay (BrdU incorporation); type: cell-based, human; conditions: range of concentrations
Description: A673, HM7, HPAC and Calu6 cells were trypsinized and washed in media containing 0.5% FBS before seeding into 96-well black Viewplate (Packard Bioscience Company, Meriden, Conn.). Cells were incubated with various amounts of Bv8 (PeproTech Inc., Rocky Hill, N.J.) for 3 days. 10% FBS-containing media served as a positive control. Cell proliferation was assessed by BrdU incorporation using the Cell Proliferation ELISA kit (Roche).

Row | stimulation of PKR1/EG-VEGFR1 transfected CHO cells [3] | Molecule | Bv8 level in the serum [1] | dead cells among CD11b+Gr1+ cells ([2]; Bv8 300 ng/ml, 5 days) | number of dead cells in Lin- population ([2]; Bv8 for 5 days, 7AAD) | CD11b+Gr1+ cells arising in Lin- population ([2]; Bv8 for 5 days, vs controls) | MAPK pathway in CD11b+Gr1+ cells ([2]; data not shown) | CFU colonies from Lin- cells ([2]; p<0.05 vs control-treated cells) | concentration of maximal stimulation [4] | maximal stimulation of chemotaxis above control ([4]; 3 hr) | MAP kinase phosphorylation in TAECs [5] | migration of BM CD11b+Gr1+ cells [6] | tube formation in Matrigel [7] | effect on proliferation of tumor cell lines [8] | effect on proliferation of tumor cell lines ([8]; listed as recombinant Bv8)
1 | – | N.N.[Cl][Pt][Cl] [cisplatin] | significantly (p<0.05) increased | – | – | – | – | – | – | – | – | – | – | – | –
2 | dose-dependent stimulation | B1 | – | fewer dead cells | significantly lower than controls | higher expression of CD11b+Gr1+ cells | activation of MAPK pathway in a time dependent manner | greater number of colonies | ~2 pM | ~3 fold | strong induction of MAP kinase phosphorylation | promoted migration | promoted tube formation | neither the anti-Bv8 Mabs nor Bv8 itself had any detectable effects | failed to stimulate the proliferation
